US20130130985A1

Experiments:
[1] = target: human vasopressin V1a receptor (human) (UniProt P37288); experiment: radioligand displacement (125I-V1a linear antagonist), SPA beads, COS-1 membranes
[2] = target: human vasopressin V1b receptor (human) (UniProt P47901); experiment: radioligand displacement (3H-AVP), WGA SPA beads, COS-1 membranes
[3] = target: human vasopressin V2 receptor (human) (UniProt P30518); experiment: radioligand displacement (3H-AVP), filtration, HEK293 membranes
[4] = target: human oxytocin receptor (human) (UniProt P30559); experiment: radioligand displacement (3H-OT), SPA beads, COS-1 membranes
Sequence of human oxytocin receptor (human) (P30559 whole entry): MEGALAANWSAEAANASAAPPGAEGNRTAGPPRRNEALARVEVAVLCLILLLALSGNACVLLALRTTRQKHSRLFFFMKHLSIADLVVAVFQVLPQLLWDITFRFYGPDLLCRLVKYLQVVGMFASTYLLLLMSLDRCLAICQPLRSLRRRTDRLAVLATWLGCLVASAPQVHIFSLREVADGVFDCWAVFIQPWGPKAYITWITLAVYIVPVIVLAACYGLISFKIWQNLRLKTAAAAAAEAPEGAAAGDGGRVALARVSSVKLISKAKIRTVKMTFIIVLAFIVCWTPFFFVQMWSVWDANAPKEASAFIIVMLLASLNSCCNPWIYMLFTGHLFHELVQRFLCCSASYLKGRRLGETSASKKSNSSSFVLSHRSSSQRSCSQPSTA

[5] = target: human vasopressin V1b receptor (human) (UniProt P47901); experiment: cell-based or functional assay
[6] = target: human oxytocin receptor (human) (UniProt P30559); experiment: cell-based or functional assay
[7] = target: human vasopressin V1a receptor (human) (UniProt P37288); experiment: cell-based or functional assay

Sequence of human vasopressin V1a receptor (human) (P37288 whole entry): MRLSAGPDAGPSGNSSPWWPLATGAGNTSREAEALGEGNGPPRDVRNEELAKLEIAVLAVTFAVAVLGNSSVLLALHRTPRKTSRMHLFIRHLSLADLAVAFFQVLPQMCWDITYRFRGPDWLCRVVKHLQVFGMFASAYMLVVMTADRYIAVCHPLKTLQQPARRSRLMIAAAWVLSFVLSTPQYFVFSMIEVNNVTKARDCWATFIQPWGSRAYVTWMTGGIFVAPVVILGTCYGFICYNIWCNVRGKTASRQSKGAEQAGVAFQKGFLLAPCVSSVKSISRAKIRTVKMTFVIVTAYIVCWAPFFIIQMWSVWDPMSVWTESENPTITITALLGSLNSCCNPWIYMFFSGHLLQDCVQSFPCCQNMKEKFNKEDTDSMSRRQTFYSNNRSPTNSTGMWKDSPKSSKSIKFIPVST
Sequence of human vasopressin V1b receptor (human) (P47901 whole entry): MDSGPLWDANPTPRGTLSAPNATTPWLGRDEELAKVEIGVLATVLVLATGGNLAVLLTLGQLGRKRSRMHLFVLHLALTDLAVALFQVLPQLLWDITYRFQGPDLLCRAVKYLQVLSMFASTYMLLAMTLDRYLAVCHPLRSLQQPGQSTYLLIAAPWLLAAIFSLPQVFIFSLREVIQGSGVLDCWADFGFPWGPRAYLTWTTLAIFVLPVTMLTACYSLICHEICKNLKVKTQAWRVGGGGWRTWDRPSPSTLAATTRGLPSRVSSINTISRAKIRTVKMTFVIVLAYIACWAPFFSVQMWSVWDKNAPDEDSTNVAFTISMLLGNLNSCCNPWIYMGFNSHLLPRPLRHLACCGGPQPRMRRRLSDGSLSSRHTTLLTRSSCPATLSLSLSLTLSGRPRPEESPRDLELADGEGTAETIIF

**Q.** Which results are given for [C1,6U]-OT (peptide)?
**A.** IC50 [1]: 127 nM; IC50 [2]: 1760 nM; IC50 [3]: 3350 nM; IC50 [4]: 538 nM; EC50, FLIPR calcium assay [5]: 7.75 nM; EC50, IP-One HTRF assay [5]: 510 nM; Emax, FLIPR calcium assay [5]: 82%; Emax, IP-One HTRF assay [5]: 103%; EC50, FLIPR calcium assay [6]: 1.39 nM; EC50, IP-One HTRF assay [6]: 18 nM; Emax, FLIPR calcium assay [6]: 86%; Emax, IP-One HTRF assay [6]: 94%; EC50, FLIPR calcium assay [7]: 35.9 nM; EC50, IP-One HTRF assay [7]: 269 nM; Emax, FLIPR calcium assay [7]: 100%; Emax, IP-One HTRF assay [7]: 70%

**Q.** For [C1,6U]-OT-OH (peptide), which EC50, FLIPR calcium assay [5] is on record?
**A.** 2460 nM

**Q.** And the EC50, IP-One HTRF assay [5]?
**A.** > 100000 nM

**Q.** And the Emax, FLIPR calcium assay [5]?
**A.** 63%

**Q.** [CH2-S]-OT (peptide) was tested. Which Emax, IP-One HTRF assay [6] did it give?
**A.** 64%

**Q.** And the Emax, IP-One HTRF assay [7]?
**A.** 75%

**Q.** For [Te-Te]-Oxytocin (peptide), which IC50 [4] is on record?
**A.** 8 nM

**Q.** And the EC50, FLIPR calcium assay [6]?
**A.** 11.3 nM

**Q.** What about the EC50, IP-One HTRF assay [6] of the same substance?
**A.** 13.3 nM

**Q.** What about the Emax, FLIPR calcium assay [6] of the same substance?
**A.** 86%

**Q.** What about the Emax, IP-One HTRF assay [6] of the same substance?
**A.** 98%

**Q.** And the EC50, FLIPR calcium assay [7]?
**A.** 4280 nM

**Q.** What about the EC50, IP-One HTRF assay [7] of the same substance?
**A.** > 10000 nM

**Q.** How did the IC50 [4] turn out when dOT (peptide) was run?
**A.** 1.7 nM

**Q.** And the EC50, FLIPR calcium assay [6]?
**A.** 0.39 nM

**Q.** What about the EC50, IP-One HTRF assay [6] of the same substance?
**A.** 0.71 nM

**Q.** What about the Emax, FLIPR calcium assay [6] of the same substance?
**A.** 89%

**Q.** And the Emax, IP-One HTRF assay [6]?
**A.** 100%

**Q.** And the EC50, FLIPR calcium assay [7]?
**A.** 46.1 nM

**Q.** What about the Emax, FLIPR calcium assay [7] of the same substance?
**A.** 54%
